The values that follow come from PMC5715905, “Mechanistic insight into the assembly of the HerA–NurA helicase–nuclease DNA end resection complex” (Nucleic Acids Research, 2017).

The term Kd denotes the concentration at which binding is half-saturated. By stoichiometry N is commonly meant a count of units in the complex or per binding partner.

Substitutions are numbered along the chain they refer to. Numbers in names are those of the source. Where “and” joins values, the source holds several entries; their conditions need not be identical. Identical values can stand only once.

The chains are these.
T1: HerA (Saccharolobus solfataricus, UniProt Q97WG8)
T1 construct: recombinant, heat-treated, heparin and Q columns; homo-hexamer and homo-heptamer (heptamer dominant when apo)
T1 sequence (Q97WG8 1-500): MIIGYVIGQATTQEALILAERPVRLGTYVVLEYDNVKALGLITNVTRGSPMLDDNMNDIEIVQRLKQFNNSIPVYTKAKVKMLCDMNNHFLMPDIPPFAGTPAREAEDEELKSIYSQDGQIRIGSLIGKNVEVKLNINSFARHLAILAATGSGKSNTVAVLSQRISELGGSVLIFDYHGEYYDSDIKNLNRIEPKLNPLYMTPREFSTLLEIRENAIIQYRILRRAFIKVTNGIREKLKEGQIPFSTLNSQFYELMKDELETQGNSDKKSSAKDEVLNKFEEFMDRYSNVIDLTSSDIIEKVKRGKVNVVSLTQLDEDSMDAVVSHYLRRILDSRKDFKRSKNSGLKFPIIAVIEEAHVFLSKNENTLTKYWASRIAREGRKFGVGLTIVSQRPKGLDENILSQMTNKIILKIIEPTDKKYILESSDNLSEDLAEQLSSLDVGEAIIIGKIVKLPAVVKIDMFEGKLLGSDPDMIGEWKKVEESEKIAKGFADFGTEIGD

T2: HerA (thermophilic archaeon, Sulfolobus …, UniProt Q97WG8 1-500)
T2 sequence: T1 sequence (Q97WG8 1-500)

T3: HerA;NurA H306A (thermophilic archaeon, Sulfolobus …, UniProt Q97WG8;Q97WH1 1-500;1-339, |H306A)
T3 sequence 1: T1 sequence (Q97WG8 1-500)
T3 sequence 2: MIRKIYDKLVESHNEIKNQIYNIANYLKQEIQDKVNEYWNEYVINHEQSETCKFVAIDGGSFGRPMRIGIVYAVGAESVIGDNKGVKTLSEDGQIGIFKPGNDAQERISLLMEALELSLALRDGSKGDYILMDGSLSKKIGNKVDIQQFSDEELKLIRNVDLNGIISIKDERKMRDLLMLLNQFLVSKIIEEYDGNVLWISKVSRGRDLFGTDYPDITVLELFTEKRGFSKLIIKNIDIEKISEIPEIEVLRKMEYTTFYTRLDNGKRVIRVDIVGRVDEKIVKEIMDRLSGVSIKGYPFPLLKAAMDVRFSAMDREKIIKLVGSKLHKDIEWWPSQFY

T4: HerA;NurA (thermophilic archaeon, Sulfolobus …, UniProt Q97WG8;Q97WH1 1-500;1-339, |)
T4 sequence 1: T1 sequence (Q97WG8 1-500)
T4 sequence 2: T3 sequence 2 with A306H

T5: HerA K154A (thermophilic archaeon, Sulfolobus …, UniProt Q97WG8 1-500, K154A)
T5 sequence: T1 sequence (Q97WG8 1-500) with K154A

B1: 5'-fluorescein 25 bp dsDNA (dsDNA)
DNA 1: GTAGTCCGGACGACAAACGCCGACT
DNA 2: AGTCGGCGTTTGTCGTCCGGACTAC
B2: HerA helicase, wild type (Sulfolobus solfataricus) (enzyme, S. solfataricus)
chain: T1 sequence (Q97WG8 1-500)
notes: HerA helicase of the thermophilic archaeon Sulfolobus solfataricus; In solution a mix of hexamer and heptamer; the hexamer is the form found with NurA; No tag is named in the purification; Expression and constructs may be described in the supplementary materials and methods; also called apo-HerA; wild-type HerA; source: cells lysed by sonication, lysate heated at 70°C, purified (Heparin HP, …)
B3: 25 bp dsDNA (dsDNA)
DNA 1: GTAGTCCGGACGACAAACGCCGACT
DNA 2: AGTCGGCGTTTGTCGTCCGGACTAC
B4: NurA nuclease, wild type (Sulfolobus solfataricus) (enzyme, S. solfataricus)
chain: T3 sequence 2 with A306H
notes: NurA nuclease of the thermophilic archaeon Sulfolobus solfataricus; Homodimer; No tag is named in the purification; also called NurA^WT; NurA dimer; source: cells lysed by sonication, lysate heated at 70°C, purified (Heparin HP, HiTrap Q HP)
B5: NurA H306A, nuclease-inactive mutant (Sulfolobus solfataricus) (enzyme, S. solfataricus)
chain: T3 sequence 2
notes: NurA nuclease of Sulfolobus solfataricus with H306A; Made to prevent dsDNA degradation in the HerA-NurA-dsDNA complex; source: cells lysed by sonication, lysate heated at 70°C, purified (Heparin HP, HiTrap Q HP)

In one data set the target is T6, HerA–NurA (Saccharolobus solfataricus, UniProt Q97WG8).
T6 construct: purified recombinant HerA hexamer with NurA dimer; with DNA double-strand break repair nuclease NurA
The data set is described as follows: native mass spectrometry. It is filed as binding. Particulars: nuclease-active complex with 25 bp dsDNA.

In data set [1] the target is T1, HerA. The data set is described as follows: native mass spectrometry titration. It is filed as binding. Particulars: 2 mM MgCl2, room temperature 1 h, 30 μM monomer, then 200 mM ammonium acetate, no dsDNA.
Data set [2] concerns the target T2, HerA. The data set is described as follows: fluorescence anisotropy; no nucleotide; HerA monomer concentration; FA: 5 nM dsDNA, 100 mM NaCl, 20 mM Hepes-NaOH pH 8.0, 30 min room temperature (with nucleotide: 2 mM plus 5 mM MgCl2); native MS: 200 mM ammonium acetate pH 7.0-7.5, 1:1 protein:DNA, 30 min room temperature. Particulars: protein: recombinant; chain copies: 6; label: 5'-fluorescein on strand 1; blunt. On the technique in general: Polarisation of emitted light reports the rotation of a fluorescent probe.

The target in the next data set is T3, HerA;NurA H306A. The data set is described as follows: fluorescence anisotropy; no nucleotide; Hill fit; monomeric HerA concentration; FA: 5 nM dsDNA, 100 mM NaCl, 20 mM Hepes-NaOH pH 8.0, 30 min room temperature (with nucleotide: 2 mM plus 5 mM MgCl2); native MS: 200 mM ammonium acetate pH 7.0-7.5, 1:1 protein:DNA, 30 min room temperature. To be noted: protein: recombinant;recombinant; tags: ;; chain copies: 6;2; label: 5'-fluorescein on strand 1; blunt.

For data set [3], the target named is T2, HerA. The data set is described as follows: fluorescence anisotropy; 2 mM ATPgS, 5 mM MgCl2; HerA monomer concentration; FA: 5 nM dsDNA, 100 mM NaCl, 20 mM Hepes-NaOH pH 8.0, 30 min room temperature (with nucleotide: 2 mM plus 5 mM MgCl2); native MS: 200 mM ammonium acetate pH 7.0-7.5, 1:1 protein:DNA, 30 min room temperature. Particulars: protein: recombinant; chain copies: 6; label: 5'-fluorescein on strand 1; blunt.

Data set [4] concerns the molecule itself. The data set is described as follows: native MS; HerA alone, nucleotide-free (apo), 200 mM ammonium acetate pH 7.0-7.5, nano electrospray; relative intensities by UniDec.
For another data set, the target named is T4, HerA;NurA. The data set is described as follows: native MS; no nucleotide; dsDNA intact; FA: 5 nM dsDNA, 100 mM NaCl, 20 mM Hepes-NaOH pH 8.0, 30 min room temperature (with nucleotide: 2 mM plus 5 mM MgCl2); native MS: 200 mM ammonium acetate pH 7.0-7.5, 1:1 protein:DNA, 30 min room temperature. Particulars: protein: recombinant;recombinant; tags: ;; chain copies: 6;2; blunt.

For a further data set, the target named is T5, HerA K154A. The data set is described as follows: native MS; FA: 5 nM dsDNA, 100 mM NaCl, 20 mM Hepes-NaOH pH 8.0, 30 min room temperature (with nucleotide: 2 mM plus 5 mM MgCl2); native MS: 200 mM ammonium acetate pH 7.0-7.5, 1:1 protein:DNA, 30 min room temperature. To be noted: protein: recombinant; chain copies: 6; blunt.
Data set [5] has as its target B2. The data set is described as follows: native MS; HerA incubated with NurA (2:3 molar ratio of monomers), no dsDNA, no nucleotide, 200 mM ammonium acetate. Particulars: both partners purified.
Data set [6] deals with the molecule itself. The description is as above.
Data set [7] concerns the target B2. The data set is described as follows: native MS; HerA incubated with NurA and a 25 bp blunt-ended dsDNA (protein and DNA 1:1, 30 min at room temperature), no nucleotide, 200 mM ammonium acetate. To be noted: both partners purified.

T6 sequence (Q97WH1 whole entry, one chain of several, further chain): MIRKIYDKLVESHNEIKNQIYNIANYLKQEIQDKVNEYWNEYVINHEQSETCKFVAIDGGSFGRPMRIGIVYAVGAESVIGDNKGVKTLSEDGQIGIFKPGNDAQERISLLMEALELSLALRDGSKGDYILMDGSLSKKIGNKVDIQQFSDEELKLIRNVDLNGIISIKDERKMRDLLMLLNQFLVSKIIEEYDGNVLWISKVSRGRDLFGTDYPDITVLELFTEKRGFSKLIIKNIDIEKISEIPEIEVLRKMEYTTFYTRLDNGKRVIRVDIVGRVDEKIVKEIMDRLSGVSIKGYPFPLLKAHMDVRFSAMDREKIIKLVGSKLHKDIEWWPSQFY

As to `Nc1ncnc2c1ncn2[C@@H]1O[C@H](COP(=O)(O)OP(=O)(O)OP(O)(O)=S)[C@@H](O)[C@H]1O` [ATP-γ-S], the native mass spectrometry entry at HerA–NurA (mixed with ADP) was “nuclease-active HerA–NurA–dsDNA complex was incubated with ATP-γ-S”. Besides, the “native mass spectrometry titration” value on HerA [1] is “the HerA hexamer binds all six ATP-γ-S simultaneously”.

Regarding `Nc1ncnc2c1ncn2[C@@H]1O[C@H](COP(=O)(O)OP(=O)(O)O)[C@@H](O)[C@H]1O` [ADP], the native mass spectrometry result at HerA–NurA (ATP-γ-S pre-bound) was “determined the number of ADP simultaneously bound to HerA–NurA–dsDNA”. Besides, the “native mass spectrometry titration” value at HerA [1] (1 mM ADP spectrum) is reported as “increase in hexameric HerA population was found when titrating HerA with increasing concentrations of ADP”.

Regarding B1, the dissociation constant (Kd) amounted to 4.85 ± 0.47 µM with HerA [2], 0.51 ± 0.0304 µM with HerA;NurA H306A and 3.22 ± 0.27 µM with HerA [3].

Consider B2, for which, in data set [4], the “abundance of the heptamer over the hexamer” value is about 10 fold; the “stoichiometry N” value was 6 and 7.

Regarding B3, the binding result with HerA;NurA is on record as “binds”; in the data set with HerA K154A it was “no binding”.

Consider B4, for which the binding result in data set [5] is on record as “binds”. The “stoichiometry N” value in data set [6] was 2.

As to B5, the binding result in [7] is listed as “binds”.
